# Test results from patent publication US20200079833A1 (AstraZeneca / MedImmune, published 2020).
# Starred links: 1 amine or outer side, 2 acyl side, 3 side chain; linkers in the order of their positions; H or OH if unused. Non-standard residues stand in square brackets, D forms with d. Groups on a side chain read outwards from the residue. Primed or numbered codes have the meaning given here. No end group written: not given here. *: point of attachment. γGlu = O=C(O)[C@H](CCC(=O)[*:2])N[*:1]; Stearoyl = CCCCCCCCCCCCCCCCCC(=O)*; Palmitoyl = CCCCCCCCCCCCCCCC(=O)*; αMeF = C[C@](N)(Cc1ccccc1)C(=O)O; αMeK = C[C@](N)(CCCCN)C(=O)O; αMeS = C[C@](N)(CO)C(=O)O; PEG2′ = not defined here; Aib = CC(C)(N)C(=O)O
# T1: glucose-dependent insulinotropic peptide (gastric inhibitory polypeptide) receptor (GIPR) (human, UniProt P48546 22-466)
# T1 sequence (looked up): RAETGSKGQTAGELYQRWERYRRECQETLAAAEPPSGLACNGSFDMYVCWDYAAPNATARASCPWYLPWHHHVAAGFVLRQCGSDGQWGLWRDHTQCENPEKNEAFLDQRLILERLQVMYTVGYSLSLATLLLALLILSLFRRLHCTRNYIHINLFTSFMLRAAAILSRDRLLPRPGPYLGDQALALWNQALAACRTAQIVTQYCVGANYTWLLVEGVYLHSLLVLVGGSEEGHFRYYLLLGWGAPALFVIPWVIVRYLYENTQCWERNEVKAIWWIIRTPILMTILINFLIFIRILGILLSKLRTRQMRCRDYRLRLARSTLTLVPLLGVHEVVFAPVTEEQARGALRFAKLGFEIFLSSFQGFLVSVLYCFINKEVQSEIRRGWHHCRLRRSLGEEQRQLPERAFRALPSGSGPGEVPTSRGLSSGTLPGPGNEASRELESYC
# Molecular target: T1, glucose-dependent insulinotropic …
# Assay: cell-based or functional assay
Binder,cAMP Primary assay EC50 GIP-R [nM],cAMP Primary assay EC50 GIP-R (2nd) [nM]
H[Aib]EGS[αMeF]TSDV[αMeS]SK([PEG2′-PEG2′-γGlu-Stearoyl])LEGEAA[αMeK]E[αMeF]IA[αMeF]VV[αMeK]GG-NH2 [SEQ ID NO 116],26,25.6
H[Aib]EGS[αMeF]TSDV[αMeS]S[αMeF]LEGK([PEG2′-PEG2′-γGlu-Stearoyl])AA[αMeK]E[αMeF]IA[αMeF]VV[αMeK]GG-NH2 [SEQ ID NO 112],25,25.4
H[Aib]EGS[αMeF]TSDV[αMeS]S[αMeF]LEGEK([PEG2′-PEG2′-γGlu-Stearoyl])A[αMeK]E[αMeF]IA[αMeF]VV[αMeK]GG-NH2 [SEQ ID NO 111],25,25
H[Aib]EGS[αMeF]TSDV[αMeS]K([PEG2′-PEG2′-γGlu-Stearoyl])[αMeF]LEGEAA[αMeK]E[αMeF]IA[αMeF]VV[αMeK]GG-NH2 [SEQ ID NO 117],25,25.1
H[Aib]EGS[αMeF]TSDV[αMeS]S[αMeF]LEGEAAK([PEG2′-PEG2′-γGlu-Palmitoyl])E[αMeF]IA[αMeF]VV[αMeK]GG-NH2 [SEQ ID NO 109],26,25.6

# Now from value to binder:
cAMP Primary assay EC50 GIP-R [nM],cAMP Primary assay EC50 GIP-R (2nd) [nM],Binder
25,25.2,H[Aib]EGS[αMeF]K([PEG2′-PEG2′-γGlu-Stearoyl])SDV[αMeS]S[αMeF]LEGEAA[αMeK]E[αMeF]IA[αMeF]VV[αMeK]GG-NH2 [SEQ ID NO 122]
25,25.2,H[Aib]EGS[αMeF]TSDK([PEG2′-PEG2′-γGlu-Stearoyl])[αMeS]S[αMeF]LEGEAA[αMeK]E[αMeF]IA[αMeF]VV[αMeK]GG-NH2 [SEQ ID NO 119]
25,25.2,H[Aib]EGS[αMeF]TSDVK([PEG2′-PEG2′-γGlu-Stearoyl])S[αMeF]LEGEAA[αMeK]E[αMeF]IA[αMeF]VV[αMeK]GG-NH2 [SEQ ID NO 118]
26,25.6,H[Aib]EGSK([PEG2′-PEG2′-γGlu-Stearoyl])TSDV[αMeS]S[αMeF]LEGEAA[αMeK]E[αMeF]IA[αMeF]VV[αMeK]GG-NH2 [SEQ ID NO 123]
25,25.1,HK([PEG2′-PEG2′-γGlu-Stearoyl])EGS[αMeF]TSDV[αMeS]S[αMeF]LEGEAA[αMeK]E[αMeF]IA[αMeF]VV[αMeK]GG-NH2 [SEQ ID NO 127]

# Molecular target: GLP-1 receptor (GLP-1R) (human, UniProt P43220 24-463)
# Assay: cell-based or functional assay
Binder,cAMP Mean pM GLP-1R [pM],cAMP Primary assay EC50 GLP-1R n1 [nM],cAMP Primary assay EC50 GLP-1R n2 [nM]
H[Aib]EGS[αMeF]TSDV[αMeS]SK([PEG2′-PEG2′-γGlu-Stearoyl])LEGEAA[αMeK]E[αMeF]IA[αMeF]VV[αMeK]GG-NH2 [SEQ ID NO 116],9,0.0093,0.00912
H[Aib]EGS[αMeF]TSDV[αMeS]S[αMeF]LEGK([PEG2′-PEG2′-γGlu-Stearoyl])AA[αMeK]E[αMeF]IA[αMeF]VV[αMeK]GG-NH2 [SEQ ID NO 112],6,0.0061,0.00507
H[Aib]EGS[αMeF]TSDV[αMeS]S[αMeF]LEGEK([PEG2′-PEG2′-γGlu-Stearoyl])A[αMeK]E[αMeF]IA[αMeF]VV[αMeK]GG-NH2 [SEQ ID NO 111],17,0.018,0.0164
H[Aib]EGS[αMeF]TSDV[αMeS]K([PEG2′-PEG2′-γGlu-Stearoyl])[αMeF]LEGEAA[αMeK]E[αMeF]IA[αMeF]VV[αMeK]GG-NH2 [SEQ ID NO 117],25,0.026,0.0244
H[Aib]EGS[αMeF]TSDV[αMeS]S[αMeF]LEGEAAK([PEG2′-PEG2′-γGlu-Palmitoyl])E[αMeF]IA[αMeF]VV[αMeK]GG-NH2 [SEQ ID NO 109],34,0.034,0.0346

# Results, then the binder that gave them:
cAMP Mean pM GLP-1R [pM],cAMP Primary assay EC50 GLP-1R n1 [nM],cAMP Primary assay EC50 GLP-1R n2 [nM],Binder
25200,25,25.2,H[Aib]EGS[αMeF]K([PEG2′-PEG2′-γGlu-Stearoyl])SDV[αMeS]S[αMeF]LEGEAA[αMeK]E[αMeF]IA[αMeF]VV[αMeK]GG-NH2 [SEQ ID NO 122]
17,0.018,0.0157,H[Aib]EGS[αMeF]TSDK([PEG2′-PEG2′-γGlu-Stearoyl])[αMeS]S[αMeF]LEGEAA[αMeK]E[αMeF]IA[αMeF]VV[αMeK]GG-NH2 [SEQ ID NO 119]
783,0.81,0.758,H[Aib]EGS[αMeF]TSDVK([PEG2′-PEG2′-γGlu-Stearoyl])S[αMeF]LEGEAA[αMeK]E[αMeF]IA[αMeF]VV[αMeK]GG-NH2 [SEQ ID NO 118]
4660,4.9,4.43,H[Aib]EGSK([PEG2′-PEG2′-γGlu-Stearoyl])TSDV[αMeS]S[αMeF]LEGEAA[αMeK]E[αMeF]IA[αMeF]VV[αMeK]GG-NH2 [SEQ ID NO 123]
25100,25,25.1,HK([PEG2′-PEG2′-γGlu-Stearoyl])EGS[αMeF]TSDV[αMeS]S[αMeF]LEGEAA[αMeK]E[αMeF]IA[αMeF]VV[αMeK]GG-NH2 [SEQ ID NO 127]

# Molecular target: glucagon receptor (GCGR) (human, UniProt P47871 26-477)
# Assay: cell-based or functional assay
# Sequence of glucagon receptor (GCGR) (P47871 26-477): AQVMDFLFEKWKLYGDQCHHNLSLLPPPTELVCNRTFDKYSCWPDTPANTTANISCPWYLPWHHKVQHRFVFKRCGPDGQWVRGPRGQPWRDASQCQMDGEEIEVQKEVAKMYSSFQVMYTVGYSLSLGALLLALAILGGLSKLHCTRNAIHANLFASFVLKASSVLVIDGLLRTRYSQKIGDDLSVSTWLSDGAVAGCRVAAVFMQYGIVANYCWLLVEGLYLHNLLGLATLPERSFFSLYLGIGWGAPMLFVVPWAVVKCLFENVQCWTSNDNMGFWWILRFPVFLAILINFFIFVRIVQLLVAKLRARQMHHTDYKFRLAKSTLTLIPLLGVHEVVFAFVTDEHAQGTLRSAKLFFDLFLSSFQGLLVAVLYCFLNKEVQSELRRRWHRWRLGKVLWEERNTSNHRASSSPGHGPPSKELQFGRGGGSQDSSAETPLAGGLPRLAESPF
Binder,cAMP Primary assay EC50 Gluc-R [nM],cAMP Primary assay EC50 Gluc-R (2nd) [nM]
H[Aib]EGS[αMeF]TSDV[αMeS]SK([PEG2′-PEG2′-γGlu-Stearoyl])LEGEAA[αMeK]E[αMeF]IA[αMeF]VV[αMeK]GG-NH2 [SEQ ID NO 116],26,25.6
H[Aib]EGS[αMeF]TSDV[αMeS]S[αMeF]LEGK([PEG2′-PEG2′-γGlu-Stearoyl])AA[αMeK]E[αMeF]IA[αMeF]VV[αMeK]GG-NH2 [SEQ ID NO 112],25,25.4
H[Aib]EGS[αMeF]TSDV[αMeS]S[αMeF]LEGEK([PEG2′-PEG2′-γGlu-Stearoyl])A[αMeK]E[αMeF]IA[αMeF]VV[αMeK]GG-NH2 [SEQ ID NO 111],25,25
H[Aib]EGS[αMeF]TSDV[αMeS]K([PEG2′-PEG2′-γGlu-Stearoyl])[αMeF]LEGEAA[αMeK]E[αMeF]IA[αMeF]VV[αMeK]GG-NH2 [SEQ ID NO 117],25,25.1
H[Aib]EGS[αMeF]TSDV[αMeS]S[αMeF]LEGEAAK([PEG2′-PEG2′-γGlu-Palmitoyl])E[αMeF]IA[αMeF]VV[αMeK]GG-NH2 [SEQ ID NO 109],26,25.6

# Now from value to binder:
cAMP Primary assay EC50 Gluc-R [nM],cAMP Primary assay EC50 Gluc-R (2nd) [nM],Binder
25,25.2,H[Aib]EGS[αMeF]K([PEG2′-PEG2′-γGlu-Stearoyl])SDV[αMeS]S[αMeF]LEGEAA[αMeK]E[αMeF]IA[αMeF]VV[αMeK]GG-NH2 [SEQ ID NO 122]
25,25.2,H[Aib]EGS[αMeF]TSDK([PEG2′-PEG2′-γGlu-Stearoyl])[αMeS]S[αMeF]LEGEAA[αMeK]E[αMeF]IA[αMeF]VV[αMeK]GG-NH2 [SEQ ID NO 119]
25,25.2,H[Aib]EGS[αMeF]TSDVK([PEG2′-PEG2′-γGlu-Stearoyl])S[αMeF]LEGEAA[αMeK]E[αMeF]IA[αMeF]VV[αMeK]GG-NH2 [SEQ ID NO 118]
26,25.6,H[Aib]EGSK([PEG2′-PEG2′-γGlu-Stearoyl])TSDV[αMeS]S[αMeF]LEGEAA[αMeK]E[αMeF]IA[αMeF]VV[αMeK]GG-NH2 [SEQ ID NO 123]
25,25.1,HK([PEG2′-PEG2′-γGlu-Stearoyl])EGS[αMeF]TSDV[αMeS]S[αMeF]LEGEAA[αMeK]E[αMeF]IA[αMeF]VV[αMeK]GG-NH2 [SEQ ID NO 127]
